One block for each binder: values may come before it.
B2: Flag-PAPα (canonical poly(A) polymerase) (enzyme)
chain: MPFPVTTQGSQQTQPPQKHYGITSPISLAAPKETDCVLTQKLIETLKPFGVFEEEEELQRRILILGKLNNLVKEWIREISESKNLPQSVIENVGGKIFTFGSYRLGVHTKGADIDALCVAPRHVDRSDFFTSFYDKLKLQEEVKDLRAVEEAFVPVIKLCFDGIEIDILFARLALQTIPEDLDLRDDSLLKNLDIRCIRSLNGCRVTDEILHLVPNIDNFRLTLRAIKLWAKRHNIYSNILGFLGGVSWAMLVARTCQLYPNAIASTLVHKFFLVFSKWEWPNPVLLKQPEECNLNLPVWDPRVNPSDRYHLMPIITPAYPQQNSTYNVSVSTRMVMVEEFKQGLAITDEILLSKAEWSKLFEAPNFFQKYKHYIVLLASAPTEKQRLEWVGLVESKIRILVGSLEKNEFITLAHVNPQSFPAPKENPDKEEFRTMWVIGLVFKKTENSENLSVDLTYDIQSFTDTVYRQAINSKMFEVDMKIAAMHVKRKQLHQLLPNHVLQKKKKHSTEGVKLTALNDSSLDLSMDSDNSMSVPSPTSATKTSPLNSSGSSQGRNSPAPAVTAASVTNIQATEVSVPQVNSSESSGGTSSESIPQTATQPAISPPPKPTVSRVVSSTRLVNPPPRSSGNAATSGNAATKIPTPIVGVKRTSSPHKEESPKKTKTEEDETSEDANCLALSGHDKTEAKEQLDTETSTTQSETIQTAASLLASQKTSSTDLSDIPALPANPIPVIKNSIKLRLNR
notes: not shown: FLAG tag

Columns and labels:
[1] = target: T1, Flag-Star-PAP (full length) (human, UniProt Q9H6E5 1-874); experiment: FLAG affinity purification from HEK 293 cells, western blot
T1 construct: Expressed in HEK 293 cells and purified on anti-FLAG M2 resin together with its associated complex; also called Flag tagged Star-PAP; full-length Star-PAP; not shown: FLAG tag
T1 sequence: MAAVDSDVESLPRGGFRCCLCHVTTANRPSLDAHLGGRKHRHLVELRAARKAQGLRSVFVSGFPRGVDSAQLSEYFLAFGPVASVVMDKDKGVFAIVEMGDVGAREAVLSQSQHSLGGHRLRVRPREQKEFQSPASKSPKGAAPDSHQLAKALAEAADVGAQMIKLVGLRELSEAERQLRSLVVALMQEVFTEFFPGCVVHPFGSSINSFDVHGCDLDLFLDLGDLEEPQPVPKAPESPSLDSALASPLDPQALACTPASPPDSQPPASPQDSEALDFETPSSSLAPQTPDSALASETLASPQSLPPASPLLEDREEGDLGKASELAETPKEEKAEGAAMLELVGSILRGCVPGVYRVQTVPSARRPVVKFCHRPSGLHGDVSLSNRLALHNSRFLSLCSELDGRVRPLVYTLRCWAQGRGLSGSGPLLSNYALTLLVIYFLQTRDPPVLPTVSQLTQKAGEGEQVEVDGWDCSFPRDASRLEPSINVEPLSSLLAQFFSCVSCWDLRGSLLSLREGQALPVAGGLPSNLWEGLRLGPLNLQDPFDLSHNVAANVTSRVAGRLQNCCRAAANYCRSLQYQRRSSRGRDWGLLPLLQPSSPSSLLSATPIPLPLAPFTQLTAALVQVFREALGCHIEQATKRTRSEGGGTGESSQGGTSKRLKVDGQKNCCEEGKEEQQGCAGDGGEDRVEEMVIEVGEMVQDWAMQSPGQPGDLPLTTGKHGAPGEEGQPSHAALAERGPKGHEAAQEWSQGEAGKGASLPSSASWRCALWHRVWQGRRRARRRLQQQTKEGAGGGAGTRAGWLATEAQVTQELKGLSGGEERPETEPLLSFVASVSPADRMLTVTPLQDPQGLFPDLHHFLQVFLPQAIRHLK
Protocol: (§1) Affinity purification of Flag-Star-PAP and Flag-PAPα and their associated complex of proteins in parallel allowed a comparison of the complexes formed by Star-PAP and PAPα in more detail. Flag tagged Star-PAP and PAPα were purified from HEK 293 cells stably expressing Flag-Star-PAP or Flag-PAPα (following manufacturer's instructions; Sigma-Aldrich) and the presence of endogenous symplekin, CPSF¹⁰⁰, CPSF⁷³, CstF⁶⁴, RNA Pol II, Sm protein (Y12) and PIPKIα was assessed by western blotting. Like Flag-PAPα, Flag-Star-PAP associates with symplekin, CPSF¹⁰⁰ and CPSF⁷³, further confirmation that Star-PAP may function in an mRNA polyadenylation complex (FIG. 7). Also detected with both PAPs was a faster migrating form of RNA Pol II and Sm protein (Y-12), a component of the spliceosome, which is consistent with reports that the machinery for splicing and polyadenylation are coupled.

[2] = target: B2; experiment: as above
Protocol: as §1

endogenous Star-PAP = target: T2, endogenous Star-PAP (human, UniProt Q9H6E5 1-874); experiment: co-immunoprecipitation with antibodies against full-length Star-PAP, western blot
T2 sequence: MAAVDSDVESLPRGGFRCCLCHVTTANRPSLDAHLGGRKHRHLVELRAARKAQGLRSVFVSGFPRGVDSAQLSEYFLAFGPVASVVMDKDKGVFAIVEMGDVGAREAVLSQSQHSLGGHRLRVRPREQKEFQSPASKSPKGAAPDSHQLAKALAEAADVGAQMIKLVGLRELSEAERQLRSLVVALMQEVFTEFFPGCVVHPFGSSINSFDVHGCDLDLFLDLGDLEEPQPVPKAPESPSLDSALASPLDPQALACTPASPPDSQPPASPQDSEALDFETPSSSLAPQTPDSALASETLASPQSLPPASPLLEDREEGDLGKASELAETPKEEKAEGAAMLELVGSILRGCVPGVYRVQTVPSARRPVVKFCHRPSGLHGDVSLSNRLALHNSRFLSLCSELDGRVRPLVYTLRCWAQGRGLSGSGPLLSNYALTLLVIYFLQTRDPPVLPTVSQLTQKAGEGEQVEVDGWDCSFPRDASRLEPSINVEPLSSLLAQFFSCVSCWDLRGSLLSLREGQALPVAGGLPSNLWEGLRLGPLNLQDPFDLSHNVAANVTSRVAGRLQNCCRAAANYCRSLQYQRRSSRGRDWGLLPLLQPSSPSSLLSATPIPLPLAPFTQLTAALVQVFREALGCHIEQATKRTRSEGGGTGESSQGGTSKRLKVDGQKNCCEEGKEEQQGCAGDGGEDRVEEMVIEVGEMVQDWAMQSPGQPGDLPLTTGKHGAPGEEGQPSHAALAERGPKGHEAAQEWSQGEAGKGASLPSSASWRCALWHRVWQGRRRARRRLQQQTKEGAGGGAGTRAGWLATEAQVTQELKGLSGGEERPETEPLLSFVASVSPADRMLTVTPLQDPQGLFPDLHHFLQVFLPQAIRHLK

[3] = target: T3, CPSF-100 (Cleavage and Polyadenylation Specificity Factor subunit 100) (human, UniProt Q9P2I0 1-782); experiment: FLAG affinity purification from HEK 293 cells, western blot
T3 construct: also called SPSF-100
T3 sequence (looked up): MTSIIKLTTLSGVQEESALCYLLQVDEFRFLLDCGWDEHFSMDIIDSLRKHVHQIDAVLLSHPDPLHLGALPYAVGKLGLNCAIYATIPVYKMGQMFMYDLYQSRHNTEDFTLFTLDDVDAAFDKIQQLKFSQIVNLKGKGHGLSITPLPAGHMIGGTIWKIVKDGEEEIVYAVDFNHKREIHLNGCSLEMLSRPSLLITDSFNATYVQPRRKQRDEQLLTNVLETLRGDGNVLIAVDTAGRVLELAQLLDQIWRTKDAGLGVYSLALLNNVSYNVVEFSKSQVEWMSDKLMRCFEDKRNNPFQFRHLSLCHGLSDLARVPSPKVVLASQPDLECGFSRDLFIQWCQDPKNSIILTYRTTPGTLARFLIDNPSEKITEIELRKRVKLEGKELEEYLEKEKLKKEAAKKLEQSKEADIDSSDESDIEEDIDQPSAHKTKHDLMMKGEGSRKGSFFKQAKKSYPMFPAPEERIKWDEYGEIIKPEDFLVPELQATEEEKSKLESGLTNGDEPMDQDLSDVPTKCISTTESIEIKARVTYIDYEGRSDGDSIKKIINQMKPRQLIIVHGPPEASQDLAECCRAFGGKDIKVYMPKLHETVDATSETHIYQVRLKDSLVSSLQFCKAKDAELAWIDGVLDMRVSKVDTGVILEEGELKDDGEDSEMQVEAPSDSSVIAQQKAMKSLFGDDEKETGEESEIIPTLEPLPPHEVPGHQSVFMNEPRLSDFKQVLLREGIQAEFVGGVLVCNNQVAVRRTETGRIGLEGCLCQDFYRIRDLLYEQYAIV
Protocol: as §1

Symplekin = target: T4, Symplekin (human, UniProt Q92797 1-1274); experiment: as above
T4 sequence (looked up): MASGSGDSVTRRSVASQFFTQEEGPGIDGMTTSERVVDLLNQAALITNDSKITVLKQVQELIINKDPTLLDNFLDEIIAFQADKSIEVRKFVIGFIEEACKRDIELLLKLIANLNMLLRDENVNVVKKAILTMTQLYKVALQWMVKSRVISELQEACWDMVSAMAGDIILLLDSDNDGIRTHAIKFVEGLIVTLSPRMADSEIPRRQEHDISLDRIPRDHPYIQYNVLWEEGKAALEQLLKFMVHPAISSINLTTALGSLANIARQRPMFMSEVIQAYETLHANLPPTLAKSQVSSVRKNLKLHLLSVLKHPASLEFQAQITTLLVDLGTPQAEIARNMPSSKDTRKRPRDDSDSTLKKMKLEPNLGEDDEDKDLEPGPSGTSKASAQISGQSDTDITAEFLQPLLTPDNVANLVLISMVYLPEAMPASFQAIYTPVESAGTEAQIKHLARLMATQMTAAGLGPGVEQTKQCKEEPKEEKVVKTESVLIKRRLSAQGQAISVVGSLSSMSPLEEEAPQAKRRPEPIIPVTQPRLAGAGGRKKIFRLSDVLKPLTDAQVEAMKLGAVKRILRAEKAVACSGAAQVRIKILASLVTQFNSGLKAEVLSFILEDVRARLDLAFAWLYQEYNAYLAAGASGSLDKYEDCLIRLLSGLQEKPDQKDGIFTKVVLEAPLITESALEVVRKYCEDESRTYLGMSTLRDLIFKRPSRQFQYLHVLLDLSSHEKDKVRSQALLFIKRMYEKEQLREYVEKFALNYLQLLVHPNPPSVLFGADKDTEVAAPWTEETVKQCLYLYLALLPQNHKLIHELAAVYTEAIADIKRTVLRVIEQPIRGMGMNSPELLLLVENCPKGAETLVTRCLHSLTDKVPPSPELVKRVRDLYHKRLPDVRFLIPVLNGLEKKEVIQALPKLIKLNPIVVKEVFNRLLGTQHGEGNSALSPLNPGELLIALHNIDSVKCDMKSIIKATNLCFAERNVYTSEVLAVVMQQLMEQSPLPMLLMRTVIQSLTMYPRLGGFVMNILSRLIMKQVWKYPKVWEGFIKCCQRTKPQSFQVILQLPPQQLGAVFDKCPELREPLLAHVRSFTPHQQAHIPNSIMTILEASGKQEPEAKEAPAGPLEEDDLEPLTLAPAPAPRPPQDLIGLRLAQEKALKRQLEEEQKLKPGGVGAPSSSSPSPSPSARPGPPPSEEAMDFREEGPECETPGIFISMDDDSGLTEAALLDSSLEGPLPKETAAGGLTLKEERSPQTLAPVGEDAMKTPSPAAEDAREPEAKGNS
Protocol: as §1

[4] = target: B2; experiment: FLAG affinity purification from HEK 293 cells, immunoblot with a CKIα specific antibody
Protocol: (A) FLAG purified Star-PAP and PAPα complexes were separated by SDS-PAGE, transferred to nitrocellulose and probed with anti-FLAG and -CKIα antibodies. (B) Endogeneous Star-PAP was immunoprecipitated from HEK 293 cells. The resulting precipitates were immunoblotted with Star-PAP and CKIα specific antibodies. A non-specific IgG immunoprecipitation was used as a control. (C) Purified FLAG-Star-PAP complex was incubated with 0, 0.1, 1.0, or 100 μM IC261 (IC₅₀ 11 μM). (D) Purified FLAG-Star-PAP complex was incubated with […] (IC₅₀˜6.0 μM) prior to initiation of the kinase reaction by ATP. Arrow indicates Star-PAP protein.
Casein Kinase Iα (CKIα), is a protein kinase found in nuclear speckles; moreover, CKIα activity is inhibited by PI4,5P₂. […] FLAG proteins were expressed and purified as follows. Human Star-PAP and rat CKIα cDNAs were cloned in to the pFLAG-1 mammalian expression vector (Sigma). For each FLAG purification, four 10 cm dishes each containing ˜5×10^6 HEK 293 cells were transfected with 10 μg DNA and allowed to express for 48 hours. FLAG purifications were performed according to the manufacturer's directions.

- binding result [1]: binds
- binding result [2]: no binding
- binding result (endogenous Star-PAP): binds
B1: PIPKIα (endogenous) (enzyme, human, UniProt Q99755 1-562, looked up)
chain: MASASSGPSSSVGFSSFDPAVPSCTLSSAASGIKRPMASEVLEARQDSYISLVPYASGMPIKKIGHRSVDSSGETTYKKTTSSALKGAIQLGITHTVGSLSTKPERDVLMQDFYVVESIFFPSEGSNLTPAHHYNDFRFKTYAPVAFRYFRELFGIRPDDYLYSLCSEPLIELCSSGASGSLFYVSSDDEFIIKTVQHKEAEFLQKLLPGYYMNLNQNPRTLLPKFYGLYCVQAGGKNIRIVVMNNLLPRSVKMHIKYDLKGSTYKRRASQKEREKPLPTFKDLDFLQDIPDGLFLDADMYNALCKTLQRDCLVLQSFKIMDYSLLMSIHNIDHAQREPLSSETQYSVDTRRPAPQKALYSTAMESIQGEARRGGTMETDDHMGGIPARNSKGERLLLYIGIIDILQSYRFVKKLEHSWKALVHDGDTVSVHRPGFYAERFQRFMCNTVFKKIPLKPSPSKKFRSGSSFSRRAGSSGNSCITYQPSVSGEHKAQVTTKAEVEPGVHLGRPDVLPQTPPLEEISEGSPIPDPSFSPLVGETLQMLTTSTTLEKLEVAESEFTH
notes: Detected by western blot in immunoprecipitates and FLAG-purified complexes; also called type I phosphatidylinositol phosphate kinase alpha; PIP kinase

Binder: B2
- binding result [3]: binds
- binding result (Symplekin): binds

- binding result [4]: no binding
B3: Casein Kinase Iα (CKIα), endogenous (enzyme, human, UniProt P48729 2-337, looked up)
chain: ASSSGSKAEFIVGGKYKLVRKIGSGSFGDIYLAINITNGEEVAVKLESQKARHPQLLYESKLYKILQGGVGIPHIRWYGQEKDYNVLVMDLLGPSLEDLFNFCSRRFTMKTVLMLADQMISRIEYVHTKNFIHRDIKPDNFLMGIGRHCNKLFLIDFGLAKKYRDNRTRQHIPYREDKNLTGTARYASINAHLGIEQSRRDDMESLGYVLMYFNRTSLPWQGLKAATKKQKYEKISEKKMSTPVEVLCKGFPAEFAMYLNYCRGLRFEEAPDYMYLRQLFRILFRTLNHQYDYTFDWTMLKQKAAQQAASSSGQGQQAQTPTGKQTDKTKSNMKGF
notes: Detected with a CKIα specific antibody; also called CIKIα

— US20090263375A1 (WISCONSIN ALUMNI RESEARCH FOUNDATION, published 2009)
